This note sets out measurements from patent US20250145694A1 (GUANGDONG FEIPENG BIOLOGICAL, published 2025).

Changes are numbered by the printed parent chain.

The chains are these.
B1: Mutation 1-29 (antibody)
heavy: EVQMVESGGGLLKPGGSLKLSCAASGFTFSNYAMSWVRQTPEKRLEWVATISSGGSYSFYPDSVKGRFTISRDNAKNTLYLQMLSLRSEDTAMYYCARRDNYFGSSFMDYWGQGSSVTVSSAKTTPPSVYPLAPGSAAQTNSMVTLGCLVKGYFPEPVTVTWNSGSLSSGVHTFPAVLQSDLYTLSSSVTVPSSTWPSQTVTCNVAHPASSTKVDKKIVPRDCGCKPCICTVPEVSSVFIFPPKPKDVLTITLTPKVTCVVVDISKDDPEVQFSWFVDDVEVHTAQTKPREEQFNSTFRSVSELPIMHQDWLNGKEFKCRVNSAAFPAPIEKTISKTKGRPKAPQVYTIPPPKEQMAKDKVSLTCMITNFFPEDITVEWQWNGQPAENYKNTQPIMDTDGSYFVYSKLNVQKSNWEAGNTFTCSVLHEGLHNHHTEKSLSHSPG
light: DIQMTQTSSSLSASLGDRVTISCRASQEITNYLNWYQQKPDGTIKLLIYYTSRIHSGVSSRFSGSGSGTDYSLTISNLEQEDIATYFCQQGNTIPLTFDTGTKLELKRADAAPTVSIFPPSSEQLTSGGASVVCFLNNFYPKDINVKWKIDGSERQNGVLNSWTDQDSKDSTYSMSSTLTLTKDEYERHNSYTCEATHKTSTSPIVKSFNRNEC
notes: assembled FR/CDR/constant
B2: Mutation 1-46 (antibody)
heavy: B1 heavy with F29Y, F103Y, S106T
light: B1 light with I54L, N92H, I94L
notes: assembled FR/CDR/constant
B3: Mutation 1-36 (antibody)
heavy: B1 heavy with F29Y, F59Y, F103Y, S106T
light: B1 light with I94L
notes: assembled FR/CDR/constant
B4: Mutation 1-42 (antibody)
heavy: B1 heavy with F29Y, F103Y
light: B1 light with N92H
notes: assembled FR/CDR/constant
B5: Mutation 1-44 (antibody)
heavy: B1 heavy with F29Y, F59Y, F103P
light: B1 light with E28D, I54L, N92H, I94L
notes: assembled FR/CDR/constant
B6: Mutation 1-30 (antibody)
heavy: B1 heavy with F29Y
light: B1 light with I54L, N92H
notes: assembled FR/CDR/constant
B7: Mutation 1-43 (antibody)
heavy: B1 heavy with F59Y, F103P, S106T
light: B1 light with E28D, I54L
notes: assembled FR/CDR/constant
B8: Mutation 1-35 (antibody)
heavy: B1 heavy with F59Y, S106T
light: B1 light with E28D, I54L, N92H, I94L
notes: assembled FR/CDR/constant
B9: Mutation 1-34 (antibody)
heavy: B1 heavy with F29Y, F103P
light: B1 light with E28D
notes: assembled FR/CDR/constant
B10: Mutation 1-33 (antibody)
heavy: B1 heavy with F103P, S106T
light: B1 light with E28D, I54L, N92H
notes: assembled FR/CDR/constant
B11: Mutation 1-47 (antibody)
heavy: B1 heavy with F59Y, F103P
light: B1 light with E28D, I94L
notes: assembled FR/CDR/constant
B12: Mutation 1-48 (antibody)
heavy: B1 heavy with F29Y, F59Y, F103P, S106T
light: B1 light
notes: assembled FR/CDR/constant
B13: Mutation 1-31 (antibody)
heavy: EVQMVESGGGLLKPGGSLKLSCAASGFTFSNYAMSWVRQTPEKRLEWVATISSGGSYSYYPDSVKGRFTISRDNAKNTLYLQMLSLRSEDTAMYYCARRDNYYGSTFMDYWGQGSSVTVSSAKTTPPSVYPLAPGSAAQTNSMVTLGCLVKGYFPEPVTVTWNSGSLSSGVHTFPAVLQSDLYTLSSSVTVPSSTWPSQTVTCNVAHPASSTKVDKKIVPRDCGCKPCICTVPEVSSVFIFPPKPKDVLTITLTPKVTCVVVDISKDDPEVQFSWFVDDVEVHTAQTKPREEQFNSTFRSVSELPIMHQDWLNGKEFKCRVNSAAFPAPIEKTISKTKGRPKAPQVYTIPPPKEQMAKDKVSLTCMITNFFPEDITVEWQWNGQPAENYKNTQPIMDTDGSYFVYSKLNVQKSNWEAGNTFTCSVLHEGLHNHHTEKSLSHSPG
light: B1 light with E28D, I94L
notes: assembled FR/CDR/constant
B14: Mutation 1-45 (antibody)
heavy: B1 heavy with S106T
light: B1 light
notes: assembled FR/CDR/constant
B15: Mutation 1-38 (antibody)
heavy: B1 heavy with F29Y, F103P, S106T
light: B1 light with E28D, I54L
notes: assembled FR/CDR/constant
B16: Mutation 1-32 (antibody)
heavy: B1 heavy with F29Y, F59Y, F103Y
light: B1 light with E28D
notes: assembled FR/CDR/constant
B17: Mutation 1-41 (antibody)
heavy: B1 heavy
light: B1 light with I54L, I94L
notes: assembled FR/CDR/constant
B18: Mutation 1-37 (antibody)
heavy: B1 heavy with F103Y
light: B1 light with E28D, I54L, N92H, I94L
notes: assembled FR/CDR/constant
B19: Mutation 1-40 (antibody)
heavy: B1 heavy with F29Y, F59Y, S106T
light: B1 light with I94L
notes: assembled FR/CDR/constant; Same printed sites as Mutation 1-4
B20: Mutation 1-39 (antibody)
heavy: B1 heavy with F59Y, F103P
light: B1 light with E28D, N92H
notes: assembled FR/CDR/constant
B21: WT 1-1 (antibody, V domains shown)
VH: QVQLQQSGTELAKPGASVKFSCKASDYTFSTYWMYWIKQRPGQGLEWIGYINPSTGHTEYNQKFKDKATLTADKSSSTAYMQLNSLTSEDSAVYYCARRYYGPFAMDYWGQGTSVTVSS
VL: EIFLTQSPAIMSASPGEKVTMTCSASSSVSYAHWYQQKSGTSPKRWIYDSSKIASGIPVRFSGSGSGTSYSLTISSMEAEDAATYYCQNWSTNPYTFGGGTKLEIKR
B22: WT 1-5 (antibody, V domains shown)
VH: B21 VH with T31S, I51L, R99K, Y101W
VL: B21 VL

The target in the assay is T1, CTNI quality control recombinant antigen (human, UniProt P19429 1-210, limits assumed).
T1 construct: Recombinant antigen produced by the applicant; also called CTNI quality control recombinant protein (antigen produced by the company); cardiac troponin I
T1 sequence (P19429 whole entry): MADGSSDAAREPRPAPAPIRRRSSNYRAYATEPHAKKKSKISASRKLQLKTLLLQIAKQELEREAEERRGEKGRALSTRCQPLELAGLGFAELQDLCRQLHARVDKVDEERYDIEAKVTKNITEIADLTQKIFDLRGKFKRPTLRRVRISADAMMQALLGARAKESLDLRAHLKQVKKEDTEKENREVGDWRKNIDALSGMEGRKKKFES
Briefly: BLI, antibody on AMC sensor, cTnI in solution. As for the experimental part: With an AMC sensor, the purified antibody was diluted to 10 μg/ml with PBST, and CTNI quality control recombinant protein (antigen produced by the company) was gradient diluted with PBST to 769.2 nmol/ml, 384.6 nmol/ml, 192.3 nmol/ml, 96.2 nmol/ml, 48.1 nmol/ml, 24 nmol/ml, 12 nmol/ml, and 0 nmol/ml.
As for B1, the Kd came out at 7.59 nM, the off-rate constant (koff) was 0.000197 s⁻¹ and the kon stood at 26000 M⁻¹ s⁻¹.
The like results for B2 were, in that order, 4.93 nM, 0.000274 s⁻¹ and 55600 M⁻¹ s⁻¹.
The like results for B3 were, in that order, 9.27 nM, 0.000774 s⁻¹ and 83500 M⁻¹ s⁻¹.
The like results for B4 were, in that order, 3.09 nM, 0.000109 s⁻¹ and 35200 M⁻¹ s⁻¹.
As for B5, the Kd stood at 3.53 nM, the koff is 0.000171 s⁻¹ and the kon was 48500 M⁻¹ s⁻¹.
As to B6, the Kd came out at 5.76 nM, the koff is 0.000163 s⁻¹ and the kon was found to be 28300 M⁻¹ s⁻¹.
As to B7, the Kd is 5.37 nM, the koff stood at 0.000248 s⁻¹ and the kon is 46100 M⁻¹ s⁻¹.
The like results for B8 were, in that order, 5.25 nM, 0.000161 s⁻¹ and 30700 M⁻¹ s⁻¹.
Regarding B9, the Kd turned out to be 8.44 nM, the koff was 0.000255 s⁻¹ and the kon amounted to 30200 M⁻¹ s⁻¹.
The like results for B10 were, in that order, 0.979 nM, 0.000521 s⁻¹ and 532000 M⁻¹ s⁻¹.
In the same order, the values of B11 are 2.87 nM, 9.47e-05 s⁻¹ and 33000 M⁻¹ s⁻¹.
Turning to B12, the Kd was found to be 7.04 nM, the koff turned out to be 0.000583 s⁻¹ and the kon is 82800 M⁻¹ s⁻¹.
In the same order, the values of B13 are 8.73 nM, 0.000744 s⁻¹ and 85200 M⁻¹ s⁻¹.
The like results for B14 were, in that order, 9.02 nM, 0.00019 s⁻¹ and 21100 M⁻¹ s⁻¹.
In the same order, the values of B15 are 7.74 nM, 0.00057 s⁻¹ and 73700 M⁻¹ s⁻¹.
In the case of B16, the Kd is 8.38 nM, the koff was 0.000266 s⁻¹ and the kon was found to be 31700 M⁻¹ s⁻¹.
On to B17, for which the Kd amounted to 9.24 nM, the koff worked out at 0.000774 s⁻¹ and the kon came to 83800 M⁻¹ s⁻¹.
In the same order, the values of B18 are 4.2 nM, 0.000299 s⁻¹ and 71000 M⁻¹ s⁻¹.
In the same order, the values of B19 are 3.12 nM, 0.000262 s⁻¹ and 83900 M⁻¹ s⁻¹.
In the same order, the values of B20 are 6.25 nM, 0.000509 s⁻¹ and 81400 M⁻¹ s⁻¹.
Take B21: the Kd was determined as 33.3 nM, the koff came out at 0.000128 s⁻¹ and the kon amounted to 3840 M⁻¹ s⁻¹.
The like results for B22 were, in that order, 8.35 nM, 0.000743 s⁻¹ and 89000 M⁻¹ s⁻¹.

For orientation: Kd means the free concentration of one partner at which half of the binding sites on the other are occupied at equilibrium, for simple one-to-one binding. The koff is a measure of how fast the partners let go of each other. As a reminder, the kon is a measure of how fast the partners come together.
